Data taken from PMC9521185, “Self-assembly and label-free fluorescent aptasensor based on deoxyribonucleic acid intercalated dyes for detecting lactoferrin in milk powder”.

Biological target: lactoferrin (LF) (bovine (milk), UniProt P24627 20-708)
Test: PicoGreen dye-displacement fluorescence; PicoGreen; LF 100 nM and 1 uM; linear 20-500 nM, LOD 3 nM; Buffer, salt, pH and temperature not in the material; fluorescence ex 485 nm / em 528 nm, microplate reader
Conditions: protein: commercial; label: none (label-free; PicoGreen intercalated)

Sequence of lactoferrin (LF) (P24627 20-708): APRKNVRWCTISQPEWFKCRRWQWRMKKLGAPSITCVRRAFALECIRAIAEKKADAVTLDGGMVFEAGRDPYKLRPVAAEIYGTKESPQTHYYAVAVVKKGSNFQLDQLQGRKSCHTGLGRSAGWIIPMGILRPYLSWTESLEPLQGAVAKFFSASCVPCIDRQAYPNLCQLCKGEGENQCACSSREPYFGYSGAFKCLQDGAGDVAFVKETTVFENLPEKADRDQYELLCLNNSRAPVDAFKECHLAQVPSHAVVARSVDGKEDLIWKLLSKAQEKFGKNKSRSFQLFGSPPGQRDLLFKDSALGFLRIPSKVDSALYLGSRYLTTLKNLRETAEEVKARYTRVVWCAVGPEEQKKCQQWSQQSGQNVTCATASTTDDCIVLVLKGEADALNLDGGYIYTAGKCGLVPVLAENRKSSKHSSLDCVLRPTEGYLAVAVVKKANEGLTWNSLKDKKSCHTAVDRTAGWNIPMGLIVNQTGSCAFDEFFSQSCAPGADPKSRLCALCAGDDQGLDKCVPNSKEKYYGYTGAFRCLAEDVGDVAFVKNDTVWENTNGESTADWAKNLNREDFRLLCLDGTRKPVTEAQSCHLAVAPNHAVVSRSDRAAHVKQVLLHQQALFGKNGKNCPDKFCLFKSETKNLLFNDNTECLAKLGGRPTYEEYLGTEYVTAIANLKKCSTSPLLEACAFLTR

B1: LF aptamer (ssDNA)
DNA: TGGTGCTGCCCCTAGTCTCCGGCTGATAGCTGCTTCTTGG
  binding result: binds
